The source of these data is patent publication US20180185455A1 (OCTAPHARMA, published 2018).

For test [1], the target named is recombinant Factor VIII (UniProt P00451). As to the kind of experiment: SPR (Biacore 2000), rFVIII coupled to CM5 chip, fragment injected.
Test [2] deals with recombinant fragment III dimer with C-terminal Strep-Tag (human) (UniProt P04275). As to the kind of experiment: SPR (Biacore 2000), fragment III dimer immobilized on CM5, FVIII concentration series injected.
Test [3] addresses recombinant fragment III monomer with C-terminal Strep-Tag (human) (UniProt P04275). As to the kind of experiment: SPR (Biacore 2000), fragment III monomer immobilized on CM5, FVIII concentration series injected.
The target of test [4] is plasma derived full length Von Willebrand Factor (human) (UniProt P04275). Kind of test: SPR (Biacore 2000), plasma derived flVWF immobilized on a CM5 chip, FVIII concentration series injected; mean of n=4 per the legend.
Test [5] addresses recombinant Factor VIII (UniProt P00451). Kind of test: SPR (Biacore 2000), rFVIII coupled to CM5 chip, VWF injected.
The target of test [6] is T1, plasma derived full length Von Willebrand Factor (human, UniProt P04275 764-2813).
T1 construct: Plasma VWF is multimeric; also called pdVWF; flVWF
As to the kind of experiment: SPR (Biacore 2000), collagen type III coupled to CM5 chip, VWF injected. How it is done:
(§1) The analysis was carried out using Biacore 2000 instrument (GE Healthcare) according to Romjin et al. 2003 with modifications. Briefly human pepsin-digested collagen type III was covalently bound to the surface of a CM5 sensor chip. Subsequently the samples were injected over the sensor chip surface. The running buffer was 10 mM HEPES, 150 mM NaCl, 3.4 mM EDTA, 0.005% Tween 20.

The target of test [7] is T2, fragment III (SPIII, res. 764-2128) from plasma derived Von Willebrand Factor (human, UniProt P04275 764-2128).
T2 construct: Made by S. aureus V-8 protease digestion of pdVWF; also called VWF fragment III
Kind of test: SPR (Biacore 2000), collagen type III coupled to CM5 chip, fragment injected. How it is done:
as §1

As to “fragment II (res. 764-1673) of Von Willebrand Factor (from UniProt P04275 764-1673)”, the equilibrium dissociation constant (Kd) with recombinant Factor VIII [1] is 155 nM.

For “recombinant Factor VIII (from UniProt P00451 20-2351)”, the Kd in test [2] amounted to 1.9 nM; in test [3], 14.3 nM; in test [4] it was 0.25 nM. With “plasma derived full length Von Willebrand Factor (from UniProt P04275 764-2813)”, in the test with recombinant Factor VIII [5], the dissociation constant Kd came out at 0.67 nM.

In the case of “fragment III (SPIII, res. 764-2128) from plasma derived Von Willebrand Factor (from UniProt P04275 764-2128)”, the dissociation constant (Kd) with recombinant Factor VIII [1] was 6.18 nM.

B1: human pepsin-digested collagen type III (other, UniProt P02461 168-1196, looked up)
chain: GLAGYPGPAGPPGPPGPPGTSGHPGSPGSPGYQGPPGEPGQAGPSGPPGPPGAIGPSGPAGKDGESGRPGRPGERGLPGPPGIKGPAGIPGFPGMKGHRGFDGRNGEKGETGAPGLKGENGLPGENGAPGPMGPRGAPGERGRPGLPGAAGARGNDGARGSDGQPGPPGPPGTAGFPGSPGAKGEVGPAGSPGSNGAPGQRGEPGPQGHAGAQGPPGPPGINGSPGGKGEMGPAGIPGAPGLMGARGPPGPAGANGAPGLRGGAGEPGKNGAKGEPGPRGERGEAGIPGVPGAKGEDGKDGSPGEPGANGLPGAAGERGAPGFRGPAGPNGIPGEKGPAGERGAPGPAGPRGAAGEPGRDGVPGGPGMRGMPGSPGGPGSDGKPGPPGSQGESGRPGPPGPSGPRGQPGVMGFPGPKGNDGAPGKNGERGGPGGPGPQGPPGKNGETGPQGPPGPTGPGGDKGDTGPPGPQGLQGLPGTGGPPGENGKPGEPGPKGDAGAPGAPGGKGDAGAPGERGPPGLAGAPGLRGGAGPPGPEGGKGAAGPPGPPGAAGTPGLQGMPGERGGLGSPGPKGDKGEPGGPGADGVPGKDGPRGPTGPIGPPGPAGQPGDKGEGGAPGLPGIAGPRGSPGERGETGPPGPAGFPGAPGQNGEPGGKGERGAPGEKGEGGPPGVAGPPGGSGPAGPPGPQGVKGERGSPGGPGAAGFPGARGLPGPPGSNGNPGPPGPSGSPGKDGPPGPAGNTGAPGSPGVSGPKGDAGQPGEKGSPGAQGPPGAPGPLGIAGITGARGLAGPPGMPGPRGSPGPQGVKGESGKPGANGLSGERGPPGPQGLPGLAGTAGEPGRDGNPGSDGLPGRDGSPGGKGDRGENGSPGAPGAPGHPGPPGPVGPAGKSGDRGESGPAGPAGAPGPAGSRGAPGPQGPRGDKGETGERGAAGIKGHRGFPGNPGAPGSPGPAGQQGAIGSPGPAGPRGPVGPSGPPGKDGTSGHPGPIGPPGPRGNRGERGSEGSPGHPGQPGPPGPPGAPGPC
notes: also called collagen III
As for B1, the Kd in test [6] came out at 0.75 nM; in test [7] it was 17 nM.
